Values joined by “and” are separate entries in the source; they are usually repeats but may differ in a detail not shown here. Equal entries are not always repeated.
B1: sugarcane recombinant GNA (Galanthus nivalis agglutinin, snowdrop lectin LECGNA2) (natural protein, UniProt P30617 20-128, looked up)
chain: DNILYSGETLSTGEFLNYGSFVFIMQEDCNLVLYDVDKPIWATNTGGLSRSCFLSMQTDGNLVVYNPSNKPIWASNTGGQNGNYVCILQKDRNVVIYGTDRWATG
notes: Galanthus nivalis L. (snowdrop) lectin LECGNA2, expressed from the full-length cDNA (570 bp); the purified product is a band corresponding to mature GNA (about 12.0 kDa); The exact C-terminal end of the processed protein in sugarcane is not determined; native GNA 12,054.41 Da theoretical; also called sugarcane GNA
B2: recombinant GNA109 (G. nivalis lectin LECGNA2 with four additional amino acids, Thr106 His107 Thr108 Gly109, at the C-terminus of the mature protein) (natural protein, Galanthus nivalis)
chain: DNILYSGETLSTGEFLNYGSFVFIMQEDCNLVLYDVDKPIWATNTGGLSRSCFLSMQTDGNLVVYNPSNKPIWASNTGGQNGNYVCILQKDRNVVIYGTDRWATGTHTG
notes: numbers count on: the mature protein; four additional amino acids Thr106 His107 Thr108 Gly109 at the C-terminus of the mature protein; Theoretical mass printed: 12,051.42 Da; source: synthesized (GenScript); purified using immobilized mannose

Assays:
[1] = target: P30617; assay: SEC; TSKgel G3000SW xL, HPLC; 50 mM sodium phosphate, 0.3 M NaCl, pH 7.0; non-reducing conditions; 1.0 mL/min; absorbance at 220 and 280 nm; mass standards 6.5-675 kDa
[2] = target: the molecule itself; assay: MALDI-TOF MS; non-reducing conditions; sinapinic acid matrix; linear delayed positive ion mode; mass range 4,500-50,000 Da
[3] = target: the molecule itself; assay: SEC; TSKgel G3000SW xL, HPLC; 50 mM sodium phosphate, 0.3 M NaCl, pH 7.0; non-reducing conditions; 1.0 mL/min; absorbance at 220 and 280 nm; mass standards 6.5-675 kDa

Row | Protein | purity (relative peak abundance) of the tetramer [1] | stoichiometry N [2] | stoichiometry N [3]
1 | B1 | The purities of the recombinant GNA monomer and tetramer were 65.5% and 24%, respectively | 2 and 3 | 4
2 | B2 |  | 2 and 3 | 

Reference: paper PMC7461980, “High-Level Production of Recombinant Snowdrop Lectin in Sugarcane and Energy Cane” (Frontiers in Bioengineering and Biotechnology, 2020)
